# From the DeepSol protein solubility set
# Assay: soluble on expression in E. coli; label from the status in PepcDB or PDB records
row,Sequence,soluble on expression in E. coli
1,MASYKGLIVDVNGRSHENNLAHRTREIDRERLIVRRGQPFSITLQCSDSLPPKHHLELVLHLGKRDEVVIKVQKEHGARDKWWFNQQGAQDEILLTLHSPANAVIGHYRLAVLVMSPDGHIVERADKISFHMLFNPWCRDDMVYLPDESKLQEYVMNEDGVIYMGTWDYIRSIPWNYGQFEDYVMDICFEVLDNSPAALKNSEMDIEHRSDPVYVGRTITAMVNSNGDRGVLTGRWEEPYTDGVAPYRWTGSVPILQQWSKAGVRPVKYGQCWVFAAVACTVLRCLGIPTRPITNFASAHDVDGNLSVDFLLNERLESLDSRQRSDSSWNFHCWVESWMSREDLPEGNDGWQVLDPTPQELSDGEFCCGPCPVAAIKEGNLGVKYDAPFVFAEVNADTIYWIVQKDGQRRKITEDHASVGKNISTKSVYGNHREDVTLHYKYPEGSQKEREVYKKAGRRVTEPSNEIAEQGRLQLSIKHAQPVFGTDFDVIVEVKNEGGRDAHAQLTMLAMAVTYNSLRRGECQRKTISVTVPAHKAHKEVMRLHYDDYVRCVSEHHLIRVKALLDAPGENGPIMTVANIPLSTPELLVQVPGKAVVWEPLTAYVSFTNPLPVPLKGGVFTLEGAGLLSATQIHVNGAVAPSGKVSVKLSFSPMRTGVRKLLVDFDSDRLKDVKGVTTVVVHKKYRSLITGLHTD,soluble
2,MLQHYSVSWKKGLAALCLLAVAGLSGCDQQENAAAKVEYDGLSNSQPLRVDANNHTVTMLVQINGRFLTDDTRHGIVFKDGSNGHKSLFMGYATPKAFYEALKEAGGTPGENMTMDNKETTHVTGSKLDISVNWQGAAKAYSFDEVIVDSNGKKLDMRFGGNLTAAEEKKTGCLVCLDSCPVGIVSNATYTYGAVEKRGEVKFKGNASVLPADNTLATVTFKIAE,soluble
3,MGSDKIHHHHHHMKISVLGAGCIGGSIALKLKEKHHVTAFDRDEETMKALEENGIETVSKESDLYDTDLLVLALPMSVEERFLKETDFSGKILDVASVKTPFMEIARERGLNFTGGHPMAGNERKGKSGWDREMFDGKIFFLCSLDGKEDGMIENIVKDLGARPLWIDYRIHDEIVAAVSHVQYLISLSARYVGKPFEEYAGPGYLSNTRLSKQNMEMALDMIRYNKENILKYLENARNFLNVLYHLTEKEDFENLKKVIREVIS,not soluble
4,MGSDKIHHHHHHMKYKNLFFDLDDTIWAFSRNARDTFEEVYQKYSFDRYFDSFDHYYTLYQRRNTELWLEYGEGKVTKEELNRQRFFYPLQAVGVEDEALAERFSEDFFAIIPTKSGLMPHAKEVLEYLAPQYNLYILSNGFRELQSRKMRSAGVDRYFKKIILSEDLGVLKPRPEIFHFALSATASALRESLMIGDSWEADITGAHGVGMHQAFYNVTERTVFPFQPTYHIHSLKELMNLL,not soluble
5,MTSLVRGQNTPLTSPQLTVTVSGVTPGSVDLMVFQVTTTGNVRSDSDFVFFNQPASPEGAVRLTGPSTVDVDVTKVPHSIDRLRLAVSMDDSAPGSLAAIPGLGVTLGSVSAPALGLTTERAAVLAEIYRRGEQWKIRNVSAGWDTGLKALVTEHGVVVDDAPSHPPAPTYPSTPPAQPPAPVIAPPAPTPTPAPQPRVQRSKITLTKASPTVSLAKGGDTGTMRVNLNWTRGRRGLFGGNGAIDLDLACLYQLNDGSKGVVQALGNAFGDLHYPPYIALDGDDRSGTNAGGENLHINLAHLADFKRILIFAYIYDGTPNWSAADGIVTLYPPHGPEVEVRLDSPDNRARSCAIALLKNERNELTVTREVRYINGTQSDISKAYRWGLKWTAGRK,not soluble
6,MNDNEIGNPPIKALIVFRENGDTDNLFVPILCDAIRTTGIDVRCSTNEFWNSDTPYDIIHFQWPEEVMEGNCDDPDRICRLKECIAFFRSRGARFVYTRHNVRPHDANEVIGRAYDIIEEQSDVVVHMGRYSLDEFAAKHADSRNVIIPHPIYQYTYKEDISVERARQYLNLPQEAFIVTSFGKFRNREERRMVTGAFRKWDEAKKFLLAPRLYPFSRFNRYGSNFFKRWTSRAGYYLLIPLLNRLRRMHAGASDEPIDNCDLPYYMAASDVIFIQRKDILNSASIPLAFLFHKVVIGPNIGNIGEILQDTGNPVFHPDNQFDIIRALEAARQLSARRKGEDNYAYAIENMNSGKIGKEYAELYRNLANLSL,not soluble
7,MADKSAEKERLFNEWFTASYDRLRGTLRRYGMLDEDNFHDTYLFVRRQVLVPGKDITDYDAYFIGCYKKAALVKIKRENRYAHPEDDFFLRCGEEAKFLSEDDLNGCERLVRDILRFVRQKFSYEEYRMFMLRFYEAQFSFKALAECMGISASAISQKVCRIVDAVRTHSGFAWRSQMLAVESFMY,not soluble
8,HYPKALDQLSEDRGYAFSYPTAAPCERLVWSISQSLMEGKEINALFDRINSSTKRDMVTKVSPKAPHTVVLVLGESARPDYMHSYGYPLENTPRLDSLLASGAAVQFDDVVSAKPNTQGSIAAMMSIGESRAGGKWYDDPMLIPLLRSAGYYTFWLSAQEKLGFAVQNVTAIAKLSDSTLFVFRGMDDVVLPNLMQRAEYQNLFEVVHLSGSHVSYQDRYPSEFGKFTSENLPSHHDESKDAVVAHYVNSLYYTDYILGEIERKYANEDAIIIYLSDHGQVLYDAPNNPNLVGHSFSQQGVSIPLFIYLSPSMRTKYPELIPRLQSIRSRRIMTDVLPYAIMGLLGIESPLYNPELDFWGTGYDEHRPRVIYSDDSSLVID,not soluble
9,MLHVAGRIEDYALIGDMQIAALVCQDGTVDWLCLPRFDSHAVFAGLLGTEEHGFWRLGPAHASDAEPPRASRRTYRGDSLILESEWDTPRGTVRVTDFMPPRDGAPQLIRIVEGVTGRVPMRSALRMRFSYGLEHHHHHH,not soluble
10,MTIPEQNNNPIVEISIPVSTQQALEKVNATKSAWLEARRQQKAAADNIATIRQRRAEMEATTNALNEEWRTLFRESQGVVSKEMKKLRTEIALGRETLEDFDELLAAQESENALLPQEAAELAGKYIHAHDTLVGIRAKQIWEDFMQSHGKALIQTLSLLKSTMGREASAVVGVVHSVNDPDTLLKDFIHKHITRPALTNDAMPEQDPVFKLAGVAPDYAARLDFSNKLSPAAMHKMKVRQERAEKEKAV,soluble
11,PSTVSHFMAFNPKNDVLNQRTIREAISKSIDAKDIAGKSVNGLFQKNVQFVTKNNQQPHDYDMKAAERLLKSEGYHKNDDGIFEKNGKPLSFNLVIQTAEFPNWKDKAEKVQRQLKQAGIKLNVKTLDSQSYYDTLWTKKDYDLIFYRTYSDALMPYNFISSVFKNNDGQPGVLADDETLTKQLDDFPSTVSKEDQQCSFDDIFKHFNQQYYGVPIAYPNETFVVSDKV,soluble
12,MARNPRTTVRRILNSAPRSLLIQSVTIVALDPTDNNHGSHQPGSNGPSNSSTQADNFETETTADEERQKEDGVEDELEDEETTGFIDEDGEIRYPVDEVGNYEIDQEAETDESFYLDTQRDSSLCDERSQLCRSLSDQNLRTTFFLITTTNSKAAILRYLHFHNVSQDSILRKLLLNDSHLTLVEVCNLCAQNIELCKCEDMQEKCQLIFGDLKKWLEVILNSFANIMMKTKTTILEGYNSSSPINKGIFKKKLLSEMADNEMWMHFESSFDGIKVHKNGNQNIWPYSLLNLDLEDVHRASPQALILAALFIGFKNPTTKIHDRLTQWILLQMDEHVFFSEGVAWKADLTCANHDDPARRIVYNQCGLRSSGSCNFCLNQETECKINDEYTTLRENLTGSCPSTMNDGLRQRNQHSHFHKHVLYMHLCPHYSPKGNGICSRQNRWIFHQHLRFHLDFVRCPAKLHSVLVLRKHCIHGLYRLCIEPQSITDETLHLKQVLYHLARMTELYGSLFPLSTQWFEYFYHTIQRTLVPEIYNGLGMSIMRKMSALQEIKTEAAFRLHTNHQFRTEANLKMCYELGLLRRLKRISVVPTPPQYQQFCETGDVFLNVVYHDGIRYSNYCNKKTDDSNVTFIEYARVRFAKIIGMLLKENNTDLRFILKKYCNTNDHLIDISNKLYEEDVPQMHIQNWVDSVSKSSFGGRVTLTNTVVVVSADSIVGHAVVVKRNNNCVALPFSRRISLS,not soluble
13,PLQFHSVHGDNIRISRDGTLARRFESFCRAITFSARPVRINERICVKFAEISNNWNGGIRFGFTSNDPVTLEGTLPKYACPDLTNRPGFWAKALHEQYCEKDNILYYYVNGAGDVIYGINNEEKGVILTGIDTRSLLWTVIDIYGNCTGIEFLDSRIYMYQ,soluble
